Laboratory results as given in article PMC6549140, “ATP hydrolysis by KaiC promotes its KaiA binding in the cyanobacterial circadian clock system” (Life Science Alliance, 2019).
Where “and” joins values, the source holds several entries; their conditions need not be identical. Equal entries are not always repeated.

Legend:
[1] = target: KaiCAA (KaiC with Ser431 and Thr432 both substituted with alanine), hexamer (T. elongatus BP-1) (UniProt Q79V60); test: native MS; KaiC mutant (20 uM) alone, hexamerised with 1 mM ATP, 5 h at 37°C, exchanged into 150 mM ammonium acetate pH 6.8, nanoflow ESI
[2] = target: KaiCAA (KaiC with Ser431 and Thr432 both substituted with alanine), hexamer (T. elongatus BP-1) (UniProt Q79V60); test: native MS; KaiC mutant (20 uM) alone, hexamerised with 1 mM AMPPNP, 5 h at 37°C, exchanged into 150 mM ammonium acetate pH 6.8, nanoflow ESI
[3] = target: KaiC_(AA/E77Q) (KaiCAA with the catalytic glutamate Glu77 of the CI ATPase domain substituted by glutamine), hexamer (T. elongatus BP-1) (UniProt Q79V60); test: native MS; KaiC mutant (20 uM) alone, hexamerised with 1 mM ATP, 5 h at 37°C, exchanged into 150 mM ammonium acetate pH 6.8, nanoflow ESI
[4] = target: T1, CI hexamer (hexameric CI domain M1–S253) (Thermosynechococcus vestitus, UniProt Q79V60); test: native mass spectrometry after trypsin digestion; type: binding; details: KaiCAA incubated with 1 mM ATP, 37°C, 5 h; 150 mM ammonium acetate; 0.02 mg/ml trypsin up to 60 min
T1 construct: gene kaiC; CI domain M1-S253 made by trypsin digestion of KaiCAA (the S431A/T432A sites lie outside), hexamer
T1 sequence (Q79V60 1-253): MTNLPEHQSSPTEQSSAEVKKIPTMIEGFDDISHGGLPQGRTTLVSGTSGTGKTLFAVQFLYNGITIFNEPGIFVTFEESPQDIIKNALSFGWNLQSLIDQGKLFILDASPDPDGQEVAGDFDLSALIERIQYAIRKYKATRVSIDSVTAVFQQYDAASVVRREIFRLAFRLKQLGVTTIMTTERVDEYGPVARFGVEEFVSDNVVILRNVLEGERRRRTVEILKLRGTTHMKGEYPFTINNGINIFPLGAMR

[5] = target: CI domain (M1–S253) of KaiCAA, tryptic fragment, hexamer (T. elongatus BP-1); test: native MS; KaiCAA hexamer (1 mM ATP, 5 h, 37°C) exchanged into 150 mM ammonium acetate and digested with 0.02 mg/ml trypsin for 0, 30 and 60 min, analysed directly
[6] = target: KaiCDD (KaiC with Ser431 and Thr432 both substituted with aspartate), hexamer (T. elongatus BP-1) (UniProt Q79V60); test: native MS; KaiC mutant (20 uM) alone, hexamerised with 1 mM ATP, 5 h at 37°C, exchanged into 150 mM ammonium acetate pH 6.8, nanoflow ESI
[7] = target: KaiCDD (KaiC with Ser431 and Thr432 both substituted with aspartate), hexamer (T. elongatus BP-1) (UniProt Q79V60); test: native MS; KaiC mutant (20 uM) alone, hexamerised with 1 mM AMPPNP, 5 h at 37°C, exchanged into 150 mM ammonium acetate pH 6.8, nanoflow ESI
[8] = target: KaiCDD (KaiC with Ser431 and Thr432 both substituted with aspartate), hexamer (T. elongatus BP-1) (UniProt Q79V60); test: native MS; 6:3 mixture of KaiC mutant (20 uM) and KaiA (10 uM), 1 mM AMPPNP, 5 h at 37°C, 150 mM ammonium acetate pH 6.8, nanoflow ESI
[9] = target: KaiCAA (KaiC with Ser431 and Thr432 both substituted with alanine), hexamer (T. elongatus BP-1) (UniProt Q79V60); test: as above
[10] = target: KaiCAA (KaiC with Ser431 and Thr432 both substituted with alanine), hexamer (T. elongatus BP-1) (UniProt Q79V60); test: native MS; 6:1, 6:3, 6:6 and 6:9 mixtures of KaiCAA and KaiA (up to excess KaiA), 1 mM ATP, 5 h at 37°C, nanoflow ESI
[11] = target: KaiC_(AA/E77Q) (KaiCAA with the catalytic glutamate Glu77 of the CI ATPase domain substituted by glutamine), hexamer (T. elongatus BP-1) (UniProt Q79V60); test: native MS; 6:3 mixture of KaiC mutant (20 uM) and KaiA (10 uM), 1 mM ATP, 5 h at 37°C, 150 mM ammonium acetate pH 6.8, nanoflow ESI
[12] = target: KaiCDD (KaiC with Ser431 and Thr432 both substituted with aspartate), hexamer (T. elongatus BP-1) (UniProt Q79V60); test: as above
[13] = target: KaiCAA (KaiC with Ser431 and Thr432 both substituted with alanine), hexamer (T. elongatus BP-1) (UniProt Q79V60); test: as above

**Q.** Which results are given for “KaiCAA (KaiC with Ser431 and Thr432 both substituted with alanine), hexamer (from UniProt Q79V60 1-518) (natural protein)”?
**A.** stoichiometry N (subunits in the oligomer) [1]: 6; stoichiometry N (subunits in the oligomer) [2]: 6

**Q.** For “KaiC_(AA/E77Q) (KaiCAA with the catalytic glutamate Glu77 of the CI ATPase domain substituted by glutamine), hexamer (from UniProt Q79V60 1-518) (natural protein)”, which stoichiometry N (subunits in the oligomer) [3] is on record?
**A.** Its stoichiometry N (subunits in the oligomer) is 6.

**Q.** Nc1ncnc2c1ncn2[C@@H]1O[C@H](COP(=O)(O)OP(=O)(O)OP(=O)(O)O)[C@@H](O)[C@H]1O [ATP] was tested. Which “native mass spectrometry after trypsin digestion” value [4] did it give?
**A.** Its value is “the hexameric CI domain (M1–S253) containing six ATP molecules”.

**Q.** Which stoichiometry N (subunits in the oligomer) [5] does the source give for “CI domain (M1–S253) of KaiCAA, tryptic fragment, hexamer (domain or fragment)” here?
**A.** The stoichiometry N (subunits in the oligomer) was 6.

**Q.** “KaiCDD (KaiC with Ser431 and Thr432 both substituted with aspartate), hexamer (from UniProt Q79V60 1-518) (natural protein)” was tested. Which stoichiometry N (subunits in the oligomer) [6] did it give?
**A.** The stoichiometry N (subunits in the oligomer) was 6.

**Q.** And the stoichiometry N (subunits in the oligomer) [7]?
**A.** The stoichiometry N (subunits in the oligomer) was 6.

B1: KaiA (natural protein)
chain: MAQSTALTICGLVYSPAIGQELVRLHTSDIDELVYFSSEREFCNYLEARRNSIACLILEWGEGTPQIITYLHHSATLLPAILIFPAAPAPPPAGPHYHIAEVILTTDQLDQLNRQIEEAITGFVKLCPGCAVPPHVLFRLPALKESSNVDPQHRLSQKLKERLGYLGVYYKRDTAFFFRRMSPADKRKLLDELRSIYRTIVLEYFNTDAKVNERIDEFVSKAFFADISVSQVLEIHVELMDTFSKQLKLEGRSEDILLDYRLTLIDVIAHLCEMYRRSIPREV
**Q.** B1 was tested. Which stoichiometry N (KaiA molecules per KaiC hexamer) [8] did it give?
**A.** Its stoichiometry N (KaiA molecules per KaiC hexamer) is 2.

**Q.** What about the stoichiometry N (KaiA molecules per KaiC hexamer) [9] of the same molecule?
**A.** The stoichiometry N (KaiA molecules per KaiC hexamer) was 2.

**Q.** And the stoichiometry N (KaiA molecules per KaiC hexamer) [10]?
**A.** Its stoichiometry N (KaiA molecules per KaiC hexamer) is 2 and 4.

**Q.** And the stoichiometry N (KaiA molecules per KaiC hexamer) [11]?
**A.** The stoichiometry N (KaiA molecules per KaiC hexamer) was 2.

**Q.** What about the stoichiometry N (KaiA molecules per KaiC hexamer) [12] of the same molecule?
**A.** Its stoichiometry N (KaiA molecules per KaiC hexamer) is 2.

**Q.** And the stoichiometry N (KaiA molecules per KaiC hexamer) [13]?
**A.** Its stoichiometry N (KaiA molecules per KaiC hexamer) is 2.
